Substitutions are numbered along the chain they refer to. Numbers in names are those of the source. Where “and” joins values, the source holds several entries; their conditions need not be identical. Equal values may be shown once.
T1: PF4/heparin complex (human PF4 complexed with heparin) (human, UniProt P02776 32-101)
T1 construct: Multimeric complex of PF4 with heparin (not a protein); In the EIAs: PF4 captured on biotinylated heparin on streptavidin plates; In the SRA: platelets with 0.2 U/mL heparin; also called PF4 and heparin complexes
T1 sequence: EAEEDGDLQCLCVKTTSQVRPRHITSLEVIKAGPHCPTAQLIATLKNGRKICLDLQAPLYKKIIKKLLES

T2: Human PF4 (CXCL4), biotinylated, without heparin (human, UniProt P02776 32-101, biotinylated with EZ-link-Sulfo-NHS-LC-Biotin (sites not given))
T2 construct: Immobilised on streptavidin biosensors for BLI; also called PF4 alone; platelet factor 4
T2 sequence: T1 sequence

B1: Wildtype scFv (KKO-derived single chain variable fragment) (scFv)
scFv: DIQMIQSQKFMSTSVGDRVTVTCKASQNVGTNVAWYQQKPGQSPNALIYSASYRYSGVPDRFTGSGSGTDFTLTITNVQSEDLADYFCQQYNSYPLTFGTGTKLDLKGGGGSGGGGSGGGGSVQLQQSGAELVKPGASVKLSCKASGYTFTNYFIYWVKQRPGQGLEWIGEINPRNGDTDFNEKFESRATLTVDKSSSTAYMQLSSLTSEDSAIYYCTRSPYGNNYGFTYWGQGTLVTVSA
notes: VL-(G4S)3 linker-VH; expressed in E. coli BL21 from pADL-22c, purified on Ni-NTA as histidine-tagged scFv, about 28 kDa; also called WT; KKO-scFv; not shown: histidine tag from the pADL-22c vector
B2: Mutant D scFv, scFv(Y156H) (scFv)
scFv: B1 scFv with Y156H
notes: VL-linker-VH; histidine-tagged, from E. coli BL21; also called Mut D; not shown: histidine tag from the pADL-22c vector
B3: Mutant F scFv, scFv(E183V, E186K, G223R) (scFv)
scFv: B1 scFv with E183V, E186K, G223R
notes: VL-linker-VH; histidine-tagged, from E. coli BL21; also called Mut F; not shown: histidine tag from the pADL-22c vector
B4: Mutant E scFv, scFv(Y156H, D180G, Q233P) (scFv)
scFv: B1 scFv with Y156H, R175K, D180G, Q233P
notes: VL-linker-VH; histidine-tagged, from E. coli BL21; also called Mut E; not shown: histidine tag from the pADL-22c vector
B5: Mutant B scFv, scFv(R18K, N152K, D180N) (scFv)
scFv: B1 scFv with R18K, N152K, D180N
notes: VL-linker-VH; histidine-tagged, from E. coli BL21; also called Mut B; not shown: histidine tag from the pADL-22c vector

Molecular target: T1, PF4/heparin complex (human PF4 …)
Assay: competition EIA, scFv 50 µg/mL; competitor HIT-positive sera antibodies, n=10

Row | mean % inhibition of serum antibody binding [%] | Binder
1 | 44.7 | B1
2 | 78.3 | B2
3 | 80 | B3
4 | 76.5 | B4
5 | 77.8 | B5

Molecular target: T1, PF4/heparin complex (human PF4 …)
Assay: BLI (Octet), biotinylated PF4/heparin on streptavidin sensors, scFv at 1 µg/mL, 1:1 model, mean ± s.d.
Experimental: BLI experiments were performed using wildtype scFv, mutant B, mutant C, mutant D, mutant E, and mutant F at 1 μg/mL. Binding was measured against immobilized biotinylated PF4/heparin complexes on streptavidin biosensors. b) Table showing kinetic data of wildtype and mutant scFv, including binding responses and association and dissociation rates. All data was analyzed based on a 1:1 homogenous ligand binding model using Octet®) User Software version 3.1.
(§1) The Octet-QK Red 96 (FortéBio, Menlo Park, CA) instrumentation was used to conduct all BLI experiments. A 96-well microtiter plate (black, flat-bottom) was used to hold 200 μL per well of either sample or buffer. Pre-coated streptavidin biosensor tips (FortéBio) were hydrated in phosphate buffered saline (PBS) containing 1% bovine serum albumin (BSA, Sigma-Aldrich) before performing all kinetic assays. Each step was performed at an operating temperature of 23° C. with agitation at 1000 rpm. Streptavidin tips were first equilibrated in PBS+1% BSA to establish a baseline. […] The PF4-coated tips were then dipped into PBS+1% BSA for 13 minutes to re-establish a baseline. Tips were then incubated in an analyte solution containing half-fold dilutions of wildtype scFv (4.0, 2.0, 1.0, 0.5, 0.25 μg/mL in PBS+1% BSA) for 10 minutes to measure association. For mutant scFv association, tips were incubated in an analyte solution containing 200 μL of each mutant and wildtype scFv at a final concentration of 1 μg/mL in PBS+1% BSA. Antibody dissociation steps were performed by dipping sensors in wells containing PBS+1% BSA for 56 minutes. The following negative controls included in these kinetic experiments were also measured: 200 μL of buffer to replace both the antigen and scFv and 200 μL buffer replacing scFv only. Each experiment was performed with PF4 or with PF4/heparin as the immobilized antigen.
BLI experiments were performed to evaluate binding responses and affinities of wildtype and mutant scFv. Biotinylated PF4 alone or complexed with heparin was immobilized on streptavidin biosensors and used to capture wildtype scFv.

Row | koff [s⁻¹] | kon [M⁻¹ s⁻¹] | Binder
6 | 0.000519 | 96700 | B1
7 | 3.47e-05 | 12900 | B2
8 | 1.41e-05 | 50900 | B3
9 | 2.78e-05 | 79200 | B4
10 | 3.91e-05 | 27600 | B5

Molecular target: T1, PF4/heparin complex (human PF4 …)
Assay: competition EIA, scFv 50 µg/mL; competitor HIT-negative sera antibodies, n=10

Row | mean % inhibition of serum antibody binding [%] | Binder
11 | -38.3 | B1
12 | -17.3 | B2
13 | -57 | B3
14 | -34 | B4
15 | -31.4 | B5

Molecular target: T1, PF4/heparin complex (human PF4 …)
Assay: competition EIA on PF4/biotinylated heparin, scFv 0-160 µg/mL; competitor full-length KKO 2 µg/mL
Experimental: Inhibitory PF4/heparin IgG-specific Streptavidin Enzyme Immunoassay (EIA). The binding activity of wildtype and mutant scFv antibodies to PF4/heparin complexes was measured using an inhibitory PF4/heparin IgG-specific EIA with a streptavidin-biotin capture system. Before performing this protocol, 96-well NUNC Maxisorp plates (ThermoFisher) were coated with 10 μg/mL streptavidin for 24 h. Plates were then blocked with 3% bovine serum albumin (BSA) in phosphate buffered saline (PBS) for 2 h at room temperature. Plates were then coated with 1 U/mL biotinylated-heparin for 1 h followed by 30 μg/mL PF4 for 1 h. Increasing concentrations of wildtype or mutant scFv were added and incubated for 1 hr at room temperature. Without removing wildtype or scFv, HIT patient sera in a 1:50 dilution or full-length KKO (2 μg/mL) was then incubated for 1 h at room temperature. After washing, alkaline phosphatase-conjugated anti-human or anti-mouse IgG (Jackson Immuno Research Laboratories, Inc., West Grove, PA) was added at a 1:4000 dilution and incubated for 1 h temperature. For detection, 1 mg/mL p-nitrophenylphosphate (PNPP, Sigma-Aldrich) substrate dissolved in 1 mol/L diethanolamine (DEA) buffer (pH 9.6) was added. The optical density (OD) was measured at 2 min intervals for 30 min at 405 nm (OD₄₀₅ₙₘ) using a BioTek 800 TS plate reader (BioTek Instruments Inc., Winooski, VT) to determine if anti-PF4/heparin antibody binding was inhibited. Results were reported as a decrease in OD (absorbance at 405 nm) from baseline levels.
To further evaluate the binding of mutant and wildtype scFv, their ability to inhibit full-length KKO from binding PF4/heparin complexes was assessed in a modified streptavidin-capture EIA. Biotinylated heparin was immobilized with PF4 on streptavidin-coated plates and incubated with KKO in the presence of scFv at half-fold serial dilutions from 0 to 160 μg/mL. […] Wildtype scFv and mutant C were unable to inhibit full-length KKO binding at these concentrations and IC50 values for these constructs were not calculated.

Row | IC50 | Binder
16 | 111 nM and 3.1 µg/mL | B2
17 | 1.3 µg/mL | B3
18 | 293 nM and 8.2 µg/mL | B4
19 | 57.3 nM and 1.6 µg/mL | B5

Molecular target: T1, PF4/heparin complex (human PF4 …)
Assay: BLI (Octet), biotinylated PF4/heparin on streptavidin sensors, scFv 1 µg/mL, 1:1 model
Experimental: as §1
(§2) BLI experiments were performed to evaluate binding responses and affinities of wildtype and mutant scFv. Biotinylated PF4 alone or complexed with heparin was immobilized on streptavidin biosensors and used to capture wildtype scFv. Half-fold serial dilutions of wildtype scFv ranging from 0.25 μg/mL to 4 μg/mL were used to determine the optimal concentrations for future experiments PF4 (PF4 FIG. 3; PF4/heparin FIG. 4).

Row | Kd [nM] | fold stronger affinity than wildtype scFv [fold] | fold change of KD against wildtype scFv [fold] | Binder
20 | 5.38 | – | – | B1
21 | 3.77 | 100 | – | B2
22 | 0.292 | – | – | B3
23 | 0.275 | 100 | – | B4
24 | 1.36 | – | 100 | B5

Molecular target: T2, Human PF4 (CXCL4), biotinylated, …
Assay: BLI (Octet), biotinylated PF4 without heparin on streptavidin sensors, scFv 1 µg/mL
Experimental: as §1, §2

Row | average binding response (wavelength shift) [nm] | fold higher binding response than wildtype scFv [fold] | fold increase of binding response against wildtype scFv [fold] | Binder
25 | 0.0386 | – | – | B1
26 | 0.145 | ≥ 3 | – | B2
27 | 0.211 | – | 5 | B3
28 | 0.0986 | 2 | – | B4
29 | 0.267 | – | 7 | B5

Molecular target: T1, PF4/heparin complex (human PF4 …)
Assay: BLI (Octet), biotinylated PF4/heparin on streptavidin sensors, scFv 1 µg/mL
Experimental: as §1, §2

Row | average binding response (wavelength shift) [nm] | fold higher binding response than wildtype scFv [fold] | fold increase of binding response against wildtype scFv [fold] | Binder
30 | 0.0758 | – | – | B1
31 | 0.133 | ≥ 3 | – | B2
32 | 0.285 | – | 5 | B3
33 | 0.0907 | – | – | B4
34 | 0.379 | – | 4 | B5
